Results from PMC5081055, “Molecular basis of classic galactosemia from the structure of human galactose 1-phosphate uridylyltransferase” (Human Molecular Genetics, 2016).

What was measured:
[1] = molecular target: the molecule itself; experiment: crystal structure; hGALT 20 mg/ml pre-incubated with 5 mM UDP-Glc; vapour diffusion at 20 °C, 0.2 M ammonium sulphate, 30% PEG 8000; two chains in the asymmetric unit; dimer interactions analysed with PISA
[2] = molecular target: the molecule itself; experiment: small angle X-ray scattering (SAXS); HPLC-SAXS at 10 mg/ml in 10 mM HEPES pH 7.5, 150 mM NaCl, 0.5 mM TCEP; ab initio envelopes by GASBOR

| Protein | stoichiometry N [1] | stoichiometry N [2] |
| --- | --- | --- |
| uridylylated human galactose 1-phosphate uridylyltransferase (UMP-hGALT) (enzyme, UniProt P07902 1-379, looked up, UMP covalently bound to His186 (uridylylated), human galactose 1-phosphate uridylyltransferase (GALT, EC 2.7.7.12), full length, from a cDNA clone with the p.Asn314Asp polymorphism; Crystallised after pre-incubation with 5 mM UDP-Glc; for SAXS made by overnight incubation with 2 mM UDP-glucose; also called UMP-GALT; uridylylated hGALT; source: incubated with UDP-glucose; not shown: His6, N-terminal, cleaved) MSRSGTDPQQRQQASEADAAAATFRANDHQHIRYNPLQDEWVLVSAHRMKRPWQGQVEPQLLKTVPRHDPLNPLCPGAIRANGEVNPQYDSTFLFDNDFPALQPDAPSPGPSDHPLFQAKSARGVCKVMCFHPWSDVTLPLMSVPEIRAVVDAWASVTEELGAQYPWVQIFENKGAMMGCSNPHPHCQVWASSFLPDIAQREERSQQAYKSQHGEPLLMEYSRQELLRKERLVLTSEHWLVLVPFWATWPYQTLLLPRRHVRRLPELTPAERDDLASIMKKLLTKYDNLFETSFPYSMGWHGAPTGSEAGANWDHWQLHAHYYPPLLRSATVRKFMVGYEMLAQAQRDLTPEQAAERLRALPEVHYHLGQKDRETATIA | 2 | – |
| apo human galactose 1-phosphate uridylyltransferase (apo-hGALT) (enzyme, UniProt P07902 1-379, looked up, human galactose 1-phosphate uridylyltransferase (GALT, EC 2.7.7.12), full length, from a cDNA clone with the p.Asn314Asp polymorphism; De-uridylylated form made by overnight incubation with 2 mM glucose 1-phosphate; source: incubated with glucose 1-phosphate; not shown: His6, N-terminal, cleaved) MSRSGTDPQQRQQASEADAAAATFRANDHQHIRYNPLQDEWVLVSAHRMKRPWQGQVEPQLLKTVPRHDPLNPLCPGAIRANGEVNPQYDSTFLFDNDFPALQPDAPSPGPSDHPLFQAKSARGVCKVMCFHPWSDVTLPLMSVPEIRAVVDAWASVTEELGAQYPWVQIFENKGAMMGCSNPHPHCQVWASSFLPDIAQREERSQQAYKSQHGEPLLMEYSRQELLRKERLVLTSEHWLVLVPFWATWPYQTLLLPRRHVRRLPELTPAERDDLASIMKKLLTKYDNLFETSFPYSMGWHGAPTGSEAGANWDHWQLHAHYYPPLLRSATVRKFMVGYEMLAQAQRDLTPEQAAERLRALPEVHYHLGQKDRETATIA | – | 2 |
| human galactose 1-phosphate uridylyltransferase variant p.Gln188Arg, hGALT(p.Q188R) (enzyme, UniProt P07902 1-379, looked up, As purified only the apo enzyme was seen by mass spectrometry; not shown: His6, N-terminal, cleaved) MSRSGTDPQQRQQASEADAAAATFRANDHQHIRYNPLQDEWVLVSAHRMKRPWQGQVEPQLLKTVPRHDPLNPLCPGAIRANGEVNPQYDSTFLFDNDFPALQPDAPSPGPSDHPLFQAKSARGVCKVMCFHPWSDVTLPLMSVPEIRAVVDAWASVTEELGAQYPWVQIFENKGAMMGCSNPHPHCRVWASSFLPDIAQREERSQQAYKSQHGEPLLMEYSRQELLRKERLVLTSEHWLVLVPFWATWPYQTLLLPRRHVRRLPELTPAERDDLASIMKKLLTKYDNLFETSFPYSMGWHGAPTGSEAGANWDHWQLHAHYYPPLLRSATVRKFMVGYEMLAQAQRDLTPEQAAERLRALPEVHYHLGQKDRETATIA | – | 2 |
